According to US20060067886A1, “Gastrin receptor-avid peptide conjugates” (priority 1997, published 2006):

Test: Biodistribution of radiometal-DOTA-BBN conjugates in CF1 normal mice
Details: CF-1, mouse, in vivo, iv, total radioactivity; for tissue uptake dose at 1 h / dose excreted at 1 h: Avg % ID; for dose excreted at 1 h: Urine; for tissue uptake at 1 h: Avg % ID/gm
[1] = Blood, 1 hour, Blocking (excess BBN)
[2] = Kidney, 1 hour, Blocking (excess BBN)
[3] = L. Intestine, 1 hour, Blocking (excess BBN)
[4] = Liver, 1 hour, Blocking (excess BBN)
[5] = Lung, 1 hour, Blocking (excess BBN)
[6] = Muscle, 1 hour, Blocking (excess BBN)
[7] = Pancreas, 1 hour post-injection
[8] = Pancreas, 1 hour, Blocking (excess BBN)
[9] = S. Intestine, 1 hour, Blocking (excess BBN)
[10] = Spleen, 1 hour, Blocking (excess BBN)
[11] = Stomach, 1 hour, Blocking (excess BBN)

## CSCC[C@H](NC(=O)[C@H](CC(C)C)NC(=O)[C@H](Cc1cnc[nH]1)NC(=O)CNC(=O)[C@@H](NC(=O)[C@H](C)NC(=O)[C@H](Cc1c[nH]c2ccccc12)NC(=O)[C@H](CCC(N)=O)NC(=O)CCCCCCCNC(=O)CN1CCN(CC(=O)O)CCN(CC(=O)O)CCN(CC(=O)O)CC1)C(C)C)C(N)=O [111In-DOTA-8-Aoc-BBN[7-14]NH2, metal not drawn]
[1]
  tissue uptake dose at 1 h: 0.98 ± 0.23 %ID
  tissue uptake at 1 h: 0.49 ± 0.15 %ID/g
Carcass, 1 hour, Blocking (excess BBN)
  tissue uptake dose at 1 h: 7.42 ± 1.35 %ID
Heart, 1 hour post-injection
  tissue uptake dose at 1 h: 0.01 %ID
Kidney, 1 hour post-injection
  tissue uptake dose at 1 h: 1.04 ± 0.12 %ID
[2]
  tissue uptake dose at 1 h: 0.92 ± 0.13 %ID
  tissue uptake at 1 h: 2.19 ± 0.47 %ID/g
L. Intestine, 1 hour post-injection
  tissue uptake dose at 1 h: 3.02 ± 0.33 %ID
[3]
  tissue uptake dose at 1 h: 0.15 ± 0.05 %ID
  tissue uptake at 1 h: 0.16 ± 0.06 %ID/g
[4]
  tissue uptake dose at 1 h: 0.87 ± 0.1 %ID
  tissue uptake at 1 h: 0.54 ± 0.13 %ID/g
[5]
  tissue uptake dose at 1 h: 0.17 ± 0.05 %ID
  tissue uptake at 1 h: 0.74 ± 0.17 %ID/g
Muscle, 1 hour post-injection
  tissue uptake dose at 1 h: 0.02 ± 0.01 %ID
  tissue uptake at 1 h: 0.12 ± 0.05 %ID/g
[6]
  tissue uptake dose at 1 h: 0.02 ± 0.01 %ID
  tissue uptake at 1 h: 0.11 ± 0.07 %ID/g
[7]
  tissue uptake dose at 1 h: 10.8 ± 0.78 %ID
  tissue uptake at 1 h: 27 ± 3.97 %ID/g
[8]
  tissue uptake dose at 1 h: 0.19 ± 0.03 %ID
  tissue uptake at 1 h: 0.43 ± 0.1 %ID/g
S. Intestine, 1 hour post-injection
  tissue uptake dose at 1 h: 6.58 ± 1.1 %ID
[9]
  tissue uptake dose at 1 h: 1.65 ± 0.19 %ID
  tissue uptake at 1 h: 0.95 ± 0.18 %ID/g
Spleen, 1 hour post-injection
  tissue uptake dose at 1 h: 0.17 ± 0.04 %ID
[10]
  tissue uptake dose at 1 h: 0.02 ± 0.03 %ID
  tissue uptake at 1 h: 0.15 ± 0.16 %ID/g
Stomach, 1 hour post-injection
  tissue uptake dose at 1 h: 0.5 ± 0.06 %ID
[11]
  tissue uptake dose at 1 h: 0.16 ± 0.12 %ID
  tissue uptake at 1 h: 0.32 ± 0.34 %ID/g
1 hour post-injection
  dose excreted at 1 h: 71.6 ± 1.82%
1 hour, Blocking (excess BBN)
  dose excreted at 1 h: 88.2 ± 1.79%
Heart, 1 hour, Blocking (excess BBN)
  tissue uptake at 1 h: 0.16 ± 0.06 %ID/g
